Blank lines part the entries; values can stand above or below the molecule they belong to.
Legend:
[1] = system: Theophylline aptamer, Light-up construct (RNA, aptamer) GGGAACGUCUCCGAGUAGGAGACGAAGGGAGAGUGGCAGCUUACAACCUGAAGGACGGGUCCCCAGUAAUAAUGAUACCAGGAACAAAAGUUCCCCUUGGCAGCAUCUGGGUUGAGUAGAGUGUGAGCAGGAAGUGGGCUGUUGCUUUUCCAAGCUUAUCGAGUAGAUAAGCAAAAAGAAACAACAACAACAAC; test: DMS chemical mapping; conditions: 5 mM MgCl2, 1x PBS, pH 6.1, 24 °C
[2] = system: Theophylline aptamer, RNA-MaP condition construct (RNA, aptamer) GGAAAGGCGAGGAUACCAGCGUUCGCGCCCUUGGCAGCCUCGCCAAAGAAACAACAACAACAAC; test: DMS chemical mapping; conditions: 80 mM KCl, 4 mM MgCl2; 100 mM Tris-HCl, pH 7.5, 37 °C
[3] = biological target: T1, MS2 coat protein, dlFG mutant (Escherichia phage MS2, UniProt P03612, del68-81insG); test: 4 mM Mg2+; L-tryptophan 2.4 mM; RNA-MaP array; 100 mM Tris-HCl pH 7.5, 80 mM KCl, 4 mM MgCl2, 0.1 mg/mL BSA, 1 mM DTT, 0.01 mg/mL yeast tRNA, 0.01% Tween-20; protein 1.5 nM to 3 uM; 37 C (Table S3); conditions: chain copies: 2; label: tethered by stalled RNA polymerase
[4] = biological target: T1, MS2 coat protein, dlFG mutant; test: 4 mM Mg2+; miR-208a RNA 100 nM (AU…UUGU); RNA-MaP array; 100 mM Tris-HCl pH 7.5, 80 mM KCl, 4 mM MgCl2, 0.1 mg/mL BSA, 1 mM DTT, 0.01 mg/mL yeast tRNA, 0.01% Tween-20; protein 1.5 nM to 3 uM; 37 C (Table S3); conditions: chain copies: 2; label: tethered by stalled RNA polymerase
[5] = biological target: T1, MS2 coat protein, dlFG mutant; test: 4 mM Mg2+; theophylline 2 mM; RNA-MaP array; 100 mM Tris-HCl pH 7.5, 80 mM KCl, 4 mM MgCl2, 0.1 mg/mL BSA, 1 mM DTT, 0.01 mg/mL yeast tRNA, 0.01% Tween-20; protein 1.5 nM to 3 uM; 37 C (Table S3); conditions: chain copies: 2; label: tethered by stalled RNA polymerase

Kd [1]: 239.54 ± 161.15/-96.27 μM
Kd [2]: 13.11 ± 9.21/-4.86 μM
Molecule: Cn1c(=O)c2[nH]cnc2n(C)c1=O

B1: Eterna 7733368 (Same State - Tryptophan B) (ssRNA)
RNA: GGGUACAUCGCGGCCGCCACUUAUGUAAAUACAUGAGGAUCACCCAUGUCGAUGGAGACAUCGGUAAGGACCGGGUGAUGUACCG
Kd [3]: 19.3 nM

B2: Eterna 7612216 (Same State - Tryptophan B) (ssRNA)
RNA: GCUAGGUCAUCGGCCGCCACUAACGACGGUUCCAACAUGAGGAUCACCCAUGUGCCACAUGCGCAUAGGACCGGGAUGACCUAGC
Kd [3]: 21 nM

B3: Eterna 11920 (Sensor v3, turn-off variant 2) (ssRNA)
RNA: UUUAAACUUACAAUCUUCGCUGGCAUGCUUGUGCCAGCUACAUGAGGAUCACCCAUGUUUUUUGCUCGUCUUAUUCU
Kd [4]: 95 nM

B4: Eterna 7623315 (Exclusion - Theophylline A) (ssRNA)
RNA: AUUAUCAUGGUCAUAUAUAUUUCGUCAGAUACCAGACUAGAUAUAGUCCCUUGGCAGCUGUUACAUGAGGAUCACCCAUGUUAUA
Kd [5]: 45.8 nM

B5: Eterna 13224 (Sensor for hsa-mir-208a) (ssRNA)
RNA: ACCCAAAGUAUAUGGGAACAAGCUUUUUAACAUGAGGAUCACCCAUGUGCUCGUCUUAUAAGCAGUCGAAAGACUGC
Kd [4]: 17.1 nM
